Series [1] addresses T1, VapB-1 (Haemophilus influenzae (nontypeable, R2866)) (UniProt E4QWH3).
T1 sequence: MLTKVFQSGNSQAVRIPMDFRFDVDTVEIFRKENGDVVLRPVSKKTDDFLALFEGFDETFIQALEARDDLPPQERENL
Put plainly: DNase I footprinting. The following applies: EMSA: 20 mM HEPES pH 7.5, 100 mM NaCl, 0.1 mM EDTA, 1 mM DTT, 50 ug/mL BSA, 5% glycerol, 1 nM DNA, 25 C (gel 4 C); DNase I: 25 mM Tris-HCl pH 7.4, 70 mM KCl ….

Series [2] deals with T2, VapB-1 (Haemophilus influenzae (nontypeable, …, UniProt E4QWH3 1-78)).
T2 sequence: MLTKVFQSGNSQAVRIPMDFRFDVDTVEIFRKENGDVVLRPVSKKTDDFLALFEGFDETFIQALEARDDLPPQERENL
Put plainly: EMSA; up to 300:1; EMSA: 20 mM HEPES pH 7.5, 100 mM NaCl, 0.1 mM EDTA, 1 mM DTT, 50 ug/mL BSA, 5% glycerol, 1 nM DNA, 25 C (gel 4 C); DNase I: 25 mM Tris-HCl pH 7.4, 70 mM KCl, 7. To be noted: protein: recombinant; tags: C-terminal polyhistidine (pET24b); chain copies: 2; label: 5'-32P sense strand; blunt.

The target of series [3] is T2, VapB-1. Put plainly: EMSA; 300:1; EMSA: 20 mM HEPES pH 7.5, 100 mM NaCl, 0.1 mM EDTA, 1 mM DTT, 50 ug/mL BSA, 5% glycerol, 1 nM DNA, 25 C (gel 4 C); DNase I: 25 mM Tris-HCl pH 7.4, 70 mM KCl, 7. The following applies: protein: recombinant; tags: C-terminal polyhistidine (pET24b); chain copies: 2; blunt.

Experimental findings from publication PMC3302801, “Regulation of the vapBC-1 Toxin-Antitoxin Locus in Nontypeable Haemophilus influenzae” are described below.

With “GTTAGGATCCTGAAACACTTTAGTAAGCATATTTACCCTCTCGTATATACTATGTATTTAATAAGTATATACTAATCATTTCAATTGCTGTATGCAAGTAAGAAGATCAAATTACCGTTGTTTTATTTAACCGCAATCATCGAGCGAATTCTAA (double strand) [153 bp vapBC-1 locus control region]”, the binding result in series [1] is on record as “no binding”.

B1: 50TIR (dsDNA)
DNA 1: AATGATTAGTATATACTTATTAAATACATAGTATATACGAGAGGGTAAAT
DNA 2: ATTTACCCTCTCGTATATACTATGTATTTAATAAGTATATACTAATCATT
Take B1: the binding result with VapB-1 [2] is given as “no binding”.

B2: 50US (dsDNA)
DNA 1: AACAACGGTAATTTGATCTTCTTACTTGCATACAGCAATTGAAATGATTA
DNA 2: TAATCATTTCAATTGCTGTATGCAAGTAAGAAGATCAAATTACCGTTGTT
Take B2: the binding result with VapB-1 [3] was “no binding”.
